In article PMC12207370, “Macrocyclic Peptide Probes for Immunomodulatory Protein CD59: Potent Modulators of Bacterial Toxin Activity and Antibody‐Dependent Cytotoxicity” (Angewandte Chemie (International Ed. in English), 2025):

Molecular target: T1, CD59 (immobilized for SPR), P13987
T1 chain: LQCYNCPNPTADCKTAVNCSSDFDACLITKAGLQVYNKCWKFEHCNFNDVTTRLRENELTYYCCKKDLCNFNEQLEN
Test: SPR
Conditions: chain shown with the change, n = 1; for other: pKD (-Log10(KD)): parent: est. 8.0, read off a plot

Binder: YSWTWGNRSSVAGC [CP-06 R12A]
- other: pKD (-Log10(KD)): 7.1

Binder: YAWTWGNRSSVRGC [CP-06 S2A]
- other: pKD (-Log10(KD)): 7.9

Binder: YSWTWANRSSVRGC [CP-06 G6A]
- ratio to parent: 21
- other: pKD (-Log10(KD)): 6.7

Binder: YSWTAGNRSSVRGC [CP-06 W5A]
- ratio to parent: 19
- other: pKD (-Log10(KD)): 6.7

Binder: YSWTWGARSSVRGC [CP-06 N7A]
- ratio to parent: 19
- other: pKD (-Log10(KD)): 6.7

Binder: YSWTWGNRSSARGC [CP-06 V11A]
- other: pKD (-Log10(KD)): 7.6

Binder: YSWAWGNRSSVRGC [CP-06 T4A]
- other: pKD (-Log10(KD)): 7.8

Binder: YSWTWGNASSVRGC [CP-06 R8A]
- other: pKD (-Log10(KD)): 7.8

Binder: YSWTWGNRSAVRGC [CP-06 S10A]
- other: pKD (-Log10(KD)): 8

Binder: YSWTWGNRASVRGC [CP-06 S9A]
- other: pKD (-Log10(KD)): 7.7
